# Laboratory results published in patent USRE47150 (Bayer, dated 2018).
# Changes are numbered by the printed parent chain. In names and notes the source's numbering stands.
# T1: mouse tissue factor pathway inhibitor (TFPI) (mouse, UniProt O54819 29-289, limits assumed)
# T1 construct: bought; also called mTFPI; murine TFPI
# T1 sequence (looked up): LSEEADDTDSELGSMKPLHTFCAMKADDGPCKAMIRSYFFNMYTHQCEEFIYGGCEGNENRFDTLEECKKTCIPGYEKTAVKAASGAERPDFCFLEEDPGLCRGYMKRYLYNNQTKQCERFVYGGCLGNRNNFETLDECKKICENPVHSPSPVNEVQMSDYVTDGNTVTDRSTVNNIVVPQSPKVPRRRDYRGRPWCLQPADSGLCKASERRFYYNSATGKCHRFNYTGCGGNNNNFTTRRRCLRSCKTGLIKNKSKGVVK
# T2: human tissue factor pathway inhibitor (TFPI) (human, UniProt P10646 29-304, limits assumed)
# T2 construct: bought; also called hTFPI; human TFPI
# T2 sequence (looked up): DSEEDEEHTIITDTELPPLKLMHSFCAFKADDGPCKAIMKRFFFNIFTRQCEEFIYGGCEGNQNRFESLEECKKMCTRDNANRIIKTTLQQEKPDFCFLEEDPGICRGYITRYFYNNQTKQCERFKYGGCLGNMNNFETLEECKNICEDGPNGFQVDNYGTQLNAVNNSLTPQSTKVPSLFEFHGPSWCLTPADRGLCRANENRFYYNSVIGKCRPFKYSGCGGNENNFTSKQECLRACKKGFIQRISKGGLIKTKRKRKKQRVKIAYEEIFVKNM
# B1: 4B7 HC N32D+I53T+D62Q+Y112D/LC F31I+D33F+N35I (Fab, V domains shown)
# VH: QVQLQQSGPGLVKPSQTLSLTCAISGDSVSSDSAAWSWIRQSPGRGLEWLGITYKRSKWYNQYAVSVKSRITINPDTSKNQFSLQLNSVTPEDTAVYYCARWHSDKHWGFDDWGQGTLVTVSS
# VL: DIVMTQSPLSLPVTPGEPASISCRSSQSLVISFGITYLNWYLQKPGQSPQLLIYKGSNRASGVPDRFSGSGSGTDFTLKISRVEAEDVGVYYCQQYDSYPLTFGQGTKVEIKR
# B2: 4B7 HC Q1E+N32D+D62R+Y112D/LC S32R+D33F+N35I+D97T (Fab, V domains shown)
# VH: B1 VH with Q1E, T53I, Q62R
# VL: B1 VL with I31F, S32R, D97T
# B3: 4B7 HC N32D+K55Y+D62R+Y112D/LC S32R+D33F+N35I+D97T (Fab, V domains shown)
# VH: B1 VH with T53I, K55Y, Q62R
# VL: B1 VL with I31F, S32R, D97T
# B4: 4B7 HC Q1E+N32D+G44S+K55Y+D62R+Y112D/LC V30L+S32R+D33F+N35I+T36N+D97T (Fab, V domains shown)
# VH: B1 VH with Q1E, G44S, T53I, K55Y, Q62R
# VL: B1 VL with V30L, I31F, S32R, T36N, D97T
# B5: 4B7 HC N32D+K55Y+D62Q+Y112D/LC F31I+D33F+N35I (Fab, V domains shown)
# VH: B1 VH with T53I, K55Y
# VL: B1 VL
# B6: 4B7 HC Q1E+N32D+G44S+K55Y+D62R+Y112D/LC V30L+S32R+N35I+T36N (Fab, V domains shown)
# VH: B1 VH with Q1E, G44S, T53I, K55Y, Q62R
# VL: B1 VL with V30L, I31F, S32R, F33D, T36N
# B7: 4B7 HC N32D+S37N+D62R+Y112D/LC S32R+D33F+N35I+D97T (Fab, V domains shown)
# VH: B1 VH with S37N, T53I, Q62R
# VL: B1 VL with I31F, S32R, D97T
# B8: 4B7 HC N32D+I53T+D62R+Y112D/LC S32R+D33F+N35I+D97T (Fab, V domains shown)
# VH: B1 VH with Q62R
# VL: B1 VL with I31F, S32R, D97T
# B9: 4B7 HC Q1E+N32D+G44S+K55Y+D62R+Y112D/LC S32R+D33F+N35I+D97T (Fab, V domains shown)
# VH: B1 VH with Q1E, G44S, T53I, K55Y, Q62R
# VL: B1 VL with I31F, S32R, D97T
# B10: 2A8 HC G33A+S35D+S55R+K99L/LC Y48F+N51V+D91W (Fab, V domains shown)
# VH: QVQLVESGGGLVQPGGSLRLSCAASGFTFRSYAMDWVRQAPGKGLEWVSSIRGSRSSTYYADSVKGRFTISRDNSKNTLYLQMNSLRAEDTAVYYCARLYRYWFDYWGQGTLVTVSS
# VL: DIELTQPPSVSVAPGQTARISCSGDNLRNYYAHWYQQKPGQAPVVVIFYDVNRPSGIPERFSGSNSGNTATLTISGTQAEDEADYYCQSWWDGVPVFGGGTKLTVLG
# B11: 2A8 HC S31V+I51D+S54F+K99V/LC Y48F+N51V (Fab, V domains shown)
# VH: B10 VH with S31V, A33G, D35S, I51D, S54F, R55S, L99V
# VL: B10 VL with W91D
# B12: 2A8 HC G33P+S35D+S54F+K99L/LC Y48F+N52G (Fab, V domains shown)
# VH: B10 VH with A33P, S54F, R55S
# VL: B10 VL with V51N, N52G, W91D
# B13: 2A8 HC Q1E+R30S+S35D+S55R+S56G+K99L/LC Y48F+N51V+D91W (Fab, V domains shown)
# VH: B10 VH with Q1E, R30S, A33G, S56G
# VL: B10 VL
# B14: 2A8 HC G33P+I51D+S54F/LC Y48F+N51V+V96W (Fab, V domains shown)
# VH: B10 VH with A33P, D35S, I51D, S54F, R55S, L99K
# VL: B10 VL with W91D, V96W
# B15: 2A8 HC S31V+K99V/LC N51V+D91W (Fab, V domains shown)
# VH: B10 VH with S31V, A33G, D35S, R55S, L99V
# VL: B10 VL with F48Y
# B16: 2A8 HC S31V+I51D+S55R+K99L/LC Y48F+N52G+D91L+V96W (Fab, V domains shown)
# VH: B10 VH with S31V, A33G, D35S, I51D
# VL: B10 VL with V51N, N52G, W91L, V96W
# B17: 2A8 HC S31V+G33P+S35D/LC Y48F+N51V+D91L (Fab, V domains shown)
# VH: B10 VH with S31V, A33P, R55S, L99K
# VL: B10 VL with W91L
# B18: 2A8 HC Q1E+S35D+S55R+K99L/LC Y48F+N51V+D91W (Fab, V domains shown)
# VH: B10 VH with Q1E, A33G
# VL: B10 VL
# B19: 2A8 HC S31V+G33P+S35D/LC Y48F+D91L+V96W (Fab, V domains shown)
# VH: B10 VH with S31V, A33P, R55S, L99K
# VL: B10 VL with V51N, W91L, V96W
# B20: 2A8 HC S31V+I51D+R52S+S55R+K99V/LC Y48F+D91L+V96W (Fab, V domains shown)
# VH: B10 VH with S31V, A33G, D35S, I51D, R52S, L99V
# VL: B10 VL with V51N, W91L, V96W
# B21: 2A8 HC M34I+S35D+S55R+K99L/LC Y48F+N51V+D91W (Fab, V domains shown)
# VH: B10 VH with A33G, M34I
# VL: B10 VL
# B22: 2A8 HC R30S+S31V+I51D+S55R+K99V/LC Y48F+D91L+V96W (Fab, V domains shown)
# VH: B10 VH with R30S, S31V, A33G, D35S, I51D, L99V
# VL: B10 VL with V51N, W91L, V96W
# B23: 2A8 HC Q1E+R30S+S35D+S55G+S56G+K99L/LC Y48F+D91L+V96W (Fab, V domains shown)
# VH: B10 VH with Q1E, R30S, A33G, R55G, S56G
# VL: B10 VL with V51N, W91L, V96W
# B24: 2A8 HC S31V+I51D+S55R/LC Y48F+N51V+D91L (Fab, V domains shown)
# VH: B10 VH with S31V, A33G, D35S, I51D, L99K
# VL: B10 VL with W91L
# B25: 2A8 HC Q1E+S31V+S50A+I51D+S55R+S56G+K99V/LC Y48F+D91L+V96W (Fab, V domains shown)
# VH: B10 VH with Q1E, S31V, A33G, D35S, S50A, I51D, S56G, L99V
# VL: B10 VL with V51N, W91L, V96W
# B26: 2A8 HC I51D+S54F+K99L/LC D91W (Fab, V domains shown)
# VH: B10 VH with A33G, D35S, I51D, S54F, R55S
# VL: B10 VL with F48Y, V51N
# B27: 2A8 HC S31V+G33A+I51D+S55R+K99V/LC Y48F+D91L+V96W (Fab, V domains shown)
# VH: B10 VH with S31V, D35S, I51D, L99V
# VL: B10 VL with V51N, W91L, V96W
# B28: 2A8 HC R30S+S35D+S55R+K99L/LC Y48F+N51V+D91W (Fab, V domains shown)
# VH: B10 VH with R30S, A33G
# VL: B10 VL
# B29: 2A8 HC S31V+I51D+S55R+S56G+K99V/LC Y48F+D91L+V96W (Fab, V domains shown)
# VH: B10 VH with S31V, A33G, D35S, I51D, S56G, L99V
# VL: B10 VL with V51N, W91L, V96W
# B30: 2A8 HC S31V+I51E+S55R+K99V/LC Y48F+D91L+V96W (Fab, V domains shown)
# VH: B10 VH with S31V, A33G, D35S, I51E, L99V
# VL: B10 VL with V51N, W91L, V96W
# B31: 2A8 HC M34K+S35D+S55R+K99L/LC Y48F+N51V+D91W (Fab, V domains shown)
# VH: B10 VH with A33G, M34K
# VL: B10 VL
# B32: 2A8 HC S31V+G33P+I51D+S54F+K99V/LC Y48F+N51V+D91W (Fab, V domains shown)
# VH: B10 VH with S31V, A33P, D35S, I51D, S54F, R55S, L99V
# VL: B10 VL
# Target: T1, mouse tissue factor pathway inhibitor …
# Test: competitive ELISA
Binder,binding result,variant/HC_D62R [ratio]
B1,no binding,
B2,,39.8
B3,,42.8
B4,,29.4
B5,,26.2
B6,,9.9
B7,no binding,
B8,,8.3
B9,,45.1

# Target: T2, human tissue factor pathway inhibitor …
# Test: competitive ELISA
row,Binder,variant/HC_D62R [ratio]
1,B1,5.7
2,B2,26.7
3,B3,25.6
4,B4,20.4
5,B5,25.6
6,B6,23
7,B7,1.9
8,B8,19.6
9,B9,26.3

# Target: T1, mouse tissue factor pathway inhibitor …
# Test: competitive ELISA
# Remark: another data set of the same source
row,Binder,variant/HC_K99L [ratio]
1,B10,14.7
2,B11,2.2
3,B12,2.3
4,B13,9.3
5,B14,0.4
6,B15,5.6
7,B16,0.1
8,B17,11.7
9,B18,20.3
10,B19,5.9
11,B20,7.9
12,B21,18.1
13,B22,6.5
14,B23,10.6
15,B24,6.5
16,B25,7.7
17,B26,5.3
18,B27,4.7
19,B28,19.1
20,B29,12.1
21,B30,7
22,B31,11.6
23,B32,5.9

# Target: T2, human tissue factor pathway inhibitor …
# Test: competitive ELISA
# Remark: another data set of the same source
row,Binder,variant/HC_K99L [ratio]
1,B10,16
2,B11,8.1
3,B12,6.2
4,B13,11.9
5,B14,0.6
6,B15,6.7
7,B16,0.4
8,B17,12.2
9,B18,20.9
10,B19,22.5
11,B20,11.7
12,B21,19.6
13,B22,13.5
14,B23,13.6
15,B24,8.4
16,B25,12.1
17,B26,6.2
18,B27,9
19,B28,17.9
20,B29,16.2
21,B30,9.2
22,B31,11.2
23,B32,6.6
